Data reported in the nanobody polyreactivity screen of Harvey et al. (2022).

experiment: yeast display, Sf9 membrane polyspecificity reagent, FACS + sequencing; frameworks hold sequencing errors
Summary of the method: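 Synthetic nanobody libraries on Saccharomyces cerevisiae BJ5465 were galactose-induced for 36–48 hours, stained 1 hour at 4 °C with 10% biotinylated, detergent-solubilized Sf9 membrane reagent and enriched on streptavidin microbeads. FACS then separated cells into low and high (top ~1%) gates by anti-HA (expression) and streptavidin (reagent binding) fluorescence. Genes were colony-PCR amplified, MiSeq 2 × 250 sequenced and CDR-length filtered. A clone's polyreactivity label is that of its gate of origin.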

| Sequence | polyreactivity (PSR sort gate) |
| --- | --- |
| QVQLVESGGGLVQAGGSLRLSCAASGNIFSYYAMGWYRQATGIERELVAAISGRGTRTYYADSVKGRFSISRDNAMNTVYLQMNSLNPEDTAVYYCATEVRRLNEFDYWGQGTQVTVSS | high polyreactivity |
| QVQLVESGGGLVQAGGSLRLSCAASGNIFTNNAMGWYRQAPGKERELVAAISSSGGRTFYADSVKGRFTITRDNAKNTVNLQMNSLKPEDTSVYYCNKVASTRVSYLDMEYWGQGTQVTVSS | high polyreactivity |
| QVQLVESGGGLVQAGGSLRLSCAASGNIFTPYTMGWYRQAPGKERELVASINNAGTTKYADSVKGRFTISRDNAKNTVYLQMNSLKPEDTAVYFCAAQRRHALSSYPKHYYWGQGTQVTVSS | low polyreactivity |
| QVQLVESGGGLVQAGGSLRLSCAASGNIFTYNAMGWYRQAPGKERELVAAISWTADSTYYADSVKGRFTISRDNAKNTVYLQMNSLKPEDTAVYYFAADSQYADYGYWGQGTQVTVSS | high polyreactivity |
| QVQLVESGGGLVQAGGSLRLSCAASGNIFTYYVMGWYRQAPGKERELVAAISRRGGSTYYADSVKGRFTISRDNAKNTVYLQMNSLKPEDTAVYYCAKKYPRDMDYWGQGTQVTVSS | high polyreactivity |
| QVQLVESGGGLVQAGGSLRLSCAASGNIFVLYAMGWYRQAPGKERELVASITSDGITYYADSVKGRFTISRDNAKNTVYLQMNSLKPEDTAVYYCAVDRSYRYLPRGDYWGQGTQVTVSS | low polyreactivity |
| QVQLVESGGGLVQAGGSLRLSCAASGNIFVYYAMGWYRQAPGKERELVAAISFRGGTTYYADSVKGRFTISRDNAKNTVYLQMNSLKPEDTAVYYCAKDIFQIGYRRYDSWGQGTQVTVSS | low polyreactivity |
| QVQLVESGGGLVQAGGSLRLSCAASGNIFWGNAMGWYRQAPGKERELVATITTGGSTNYADSVKGRFTISRDNAKNTVYLQMNSLKPEDTAVYYCNKRTTTASHLTSDYWGQGTQVTVSS | low polyreactivity |
| QVQLVESGGGLVQAGGSLRLSCAASGNIFWWDAMGWYRQAPGKERELVAAITSDSTTYYADSVKGRFTISRDNAKNTVYLQMNSLKPEDTAVYYCAAYSYGGQGVDYGYWGQGTQVTVSS | low polyreactivity |
| QVQLVESGGGLVQAGGSLRLSCAASGNIFYINAMGWYRQAPGKERELVAAISSGGRTNYADSVKGRFTISRDNAKNTVYLQMNSLKPEDTAVYYCNADGWYAWRYYAPGGYDYWGQGTQVTVSS | low polyreactivity |
| QVQLVESGGGLVQAGGSLRLSCAASGNIFYKYAMGWYRQAPGKERELVAAITWRVVRTYYADSVKGRFTISRDNAKNTVYLQMNSLKPEDTAVYYCAALSRQSGDYWGQGTQVTVSS | high polyreactivity |
| QVQLVESGGGLVQAGGSLRLSCAASGNIFYLNTMGWYRQAPGKERELVASISRDGGRTYYADSVKGRFTISRDNAKNTVYLQMNSLKPEDTAVYYCAAVVLHHFTEVGQHYYWGQGTQVTVSS | low polyreactivity |
| QVQLVESGGGLVQAGGSLRLSCAASGNIFYLYAMGWYRQAPGKERELVARITIGGSTYYADSVKGRFTISRDNAKNTVYLQMNSLKPEDTAVYYCAARGPYYRYYYWGQGTQVTVSS | high polyreactivity |
| QVQLVESGGGLVQAGGSLRLSCAASGNIFYNGMGWYRQAPGKERELVAAIRGSGGRTYADSVKGRFTISRDNAKNTVYLQMNSLKPEDTAVYYCATRRWYAYGVYYWGQGTQVTVSS | high polyreactivity |
| QVQLVESGGGLVQAGGSLRLSCAASGNIFYQYAMGWYRQAPGKEREFVAAISISGTSTYADSVKGRFTISRDNAKNTVDLQLNSLKPEDTEVYWGQGTQVTVSS | low polyreactivity |
| QVQLVESGGGLVQAGGSLRLSCAASGNIFYRYAMGWYRQAPGKERELVAAIRSGSSTNYADSVKGRFTISRDNAKNTVYLQMNSLKPEDTAVYYCAARSKYTHSRQSDYWGQGTQVTVSS | low polyreactivity |
| QVQLVESGGGLVQAGGSLRLSCAASGNIFYSYAMGWYRQAPGKARELVATIRSGGSTYYADSVKGRFTISRDKAKNTVYLQMNSLKPEDTAVYYCAAPYPYRYFEYYWGQGTQVNVSS | low polyreactivity |
| QVQLVESGGGLVQAGGSLRLSCAASGNIFYSYAMGWYRQAPGKERELVAAISSSGGGTYYADSVKGRFTISRDNAKNTVYLEMNSLKPEDTAVYYCATTARPTRYSSVRYYYWGQGTQVSVSS | high polyreactivity |
| QVQLVESGGGLVQAGGSLRLSCAASGNIFYSYAMGWYRQAPGNERELVAAISWGGGRTYYADSVKGRFTISRDNAKNTVYLQMNSLKPEDTAVYYCNKVTRGGYDYWGQGTQVTVSS | high polyreactivity |
| QVQLVESGGGLVQAGGSLRLSCAASGNIFYVYAMGWYRQAPGKEREFVAAIRGSGGSTYYADSVKGRFTISRDNAKNTVYLQMNSLIQEDTAVYYCDAVAWEGSGSEMYSWGQGTQVTVSS | low polyreactivity |
| QVQLVESGGGLVQAGGSLRLSCAASGNIFYVYAMGWYRQAPGKERELVAVISRNDGSTYYADSVKARFTISRDNAKNTVYLQMNSLKPEDTAVYYCNAEWYFWGQGTQVTVSS | low polyreactivity |

| Sequence | polyreactivity (PSR sort gate) |
| --- | --- |
| QVQLVESGGGLVQAGGSLRLSCAASGNIFYYNAMGWSRQGPGKEMELVAAISSGGSTNYADSVKGRFTISRDNAKNTVYLQMNSLKPEDTAVYYCAANYVTIGSGYYGYDYWGQGTQVTVSS | low polyreactivity |
| QVQLVESGGGLVQAGGSLRLSCAASGNIICGNAMGWYRQAPGKERELVAAISRRSGSTYYADSVKGRFTISRDNAKNTVYLQMNSLKPEDTAVYYCNTAGRVGTYDYWGQGTQVTVSS | high polyreactivity |
| QVQLVESGGGLVQAGGSLRLSCAASGNIIDANAMGWYRQAPGKERELVAAITSSGGSTYYADSVKGRFTISRDNAKNTVYLQMNSLKPEDTAVYYCAKSHAIYYWWDESWGQGTQVTVSS | low polyreactivity |
| QVQLVESGGGLVQAGGSLRLSCAASGNIIWGNAIGWYRQAPGKERELVAAISRRSGSTYYADSVKGRFTISRDIAKNTVYLQMNSLKPEDTAVYYCNTAGRVGTYDYWGQGTQVTVSS | high polyreactivity |
| QVQLVESGGGLVQAGGSLRLSCAASGNILGYYAMGWYRQAPGKERELVADINWDGGSTYYADSVKGRFTISRDNAKNTVYLQMNSLKPEDTAVYYCNAEVGITWWFREVDYWGQGTQVTVSS | high polyreactivity |
| QVQLVESGGGLVQAGGSLRLSCAASGNILPVYAMGWYRQAPGKEREFVAAITSRGGSTYYADSVKGRFTISRDNAKITVYLQMNSLKPDDTAVYYCAAKYLRAYGYWGQGTQVTVSS | high polyreactivity |
| QVQLVESGGGLVQAGGSLRLSCAASGNILTTYAMGWYRQAPGKERELVAAIRWSDGSTYYADSVKGRFTISRDNAKNTVYLQMYSLKPEDNAVYYCAADYHYPTWQGGYHYGYWGQGTQVTVSS | high polyreactivity |
| QVQLVESGGGLVQAGGSLRLSCAASGNILVSYTMGWSRQAPGKDTELVAAINSGGNTNYADSVKGRFTISRDNAKNTVYLQMNSLKPEDTAVYYCNAYTDSLWVYPFWIYRDYDDWGHGTQVTVSS | low polyreactivity |
| QVQLVESGGGLVQAGGSLRLSCAASGNISPDYGMGWYRQAPGKERELVAVIRWSDDSTYYADSVKGRFTISRDYAKNSVYLQMNSLKPEDTAVYYCSTDDYDAIDLDYWGQGTQVTVSS | low polyreactivity |
| QVQLVESGGGLVQAGGSLRLSCAASGNIYDPYAMGWYRQAPGKERELVARISSGGRTDYADSVKGRFTISRDNAKNTVYLQMNSLKPEDTAVYYCAADVLQAYYLTLFGYRYYLVDYWGQGTQVTVSS | low polyreactivity |
| QVQLVESGGGLVQAGGSLRLSCAASGNIYNNYDMGWYRPAPGKERDLVARIDSGGSTNYADSVKGRFTISRDNAKNTVYLQMNCLKPEDTAVYYCAADFLSHWLLEMDYWGQGTQVTVSS | low polyreactivity |
| QVQLVESGGGLVQAGGSLRLSCAASGNNFRSYAMGWYRQATGKERELVAAISGRGGSTYYADSVKGRFTISRDNAKNTVYLQMNSLKPEDTAVYYCAAESRRVNYANDYWGQGTQVTVSS | high polyreactivity |
| QVQLVESGGGLVQAGGSLRLSCAASGNNLCRNAMGWYRQAPGKERELVATISSVGTYYADSVKGRFTISRDNAKNNVYVQMNSLKPEDTAVYSCNARGRRSGYISGYDYWGQGTQVTVSS | high polyreactivity |
| QVQLVESGGGLVQAGGSLRLSCAASGNTFDIYAMGWYIQAPGKERELVAAISRRGGSTYYAESVKGRFTISRDNAKNTVYLQLNSLKPEDTAVYYCNTVYATRYDYWGQGTQVTVSS | high polyreactivity |
| QVQLVESGGGLVQAGGSLRLSCAASGNTFDYYAMGWYRQAPGKERELVAAITRGGSTNYADSVKGRFTISRDNAKNTVYLQMNSLKPEDTAGYYCAAEQRAPRFADYDYWGQGTQVTVSS | low polyreactivity |
| QVQLVESGGGLVQAGGSLRLSCAASGNTFDYYDMGWYSQAPGKERELVAAGSGGSTYYADSVKGRFTISRDNAKHTVYLQMNSLKPEDTAVYYCAARDRYYFGGMYYWGQGTQVTVSS | low polyreactivity |
| QVQLVESGGGLVQAGGSLRLSCAASGNTFEFYAMGWYRQAPGKERELVAAISASGGRTYYADSVKGRFTISRDNAKNTVYLQMNSLKPEDTAVYYCAAVRKSTRFDYWGQGTQVTVSS | high polyreactivity |
| QVQLVESGGGLVQAGGSLRLSCAASGNTFEYNAMGWYRQAPGKEREFVAAIDFSDGSTYYADSVKGRFTISRDNAKNTVYLQMNSLKPEDTAVYYCAGDYYSYFGNYYYWGQGTQVTVSS | high polyreactivity |
| QVQLVESGGGLVQAGGSLRLSCAASGNTFFTYAMGWYRQAPGQERELVAVITSVGSTNYADSVKGLFTISRDNAKNTVYLQMNSLKPEDTAVYYCAAKGYRVYRYYRGRTYDYWGQGSQVTVSS | high polyreactivity |
| QVQLVESGGGLVQAGGSLRLSCAASGNTFGAYTMGWYRQAPGKEREFVAAISYSGGITFYADSVKGRFTISRDNAKNTVYLQMNSLKPEDTAVYYCAARTYRYGYWYDYWGQGTQVTVSS | high polyreactivity |
